This note sets out measurements from a protein production outcome set (Wang et al. 2014).

This data set in a line: label from the status in PepcDB records.
As to “MNELFDAKESLSPAEREDSLFQRLPTLIENAKANSEHYGNIFSGIDASIASNREGLAQFPITRKFNVPSQQQLKPPFGGLNSVAIGQMARVFQSPGPLYEAQTDESDFWRMGRAFHAAGFRRGDLVHNTLSYHFSPGGFIMDGGARACGCAVFPAGVGNTEAQIEAIKQLQPTGYTGTPSYLLTLLQKYQEQYGELPSFTKALVSGEAVTADMQQAFTDKGIAVFQAYASAELGLIAYQVAGEQGLVIGEDIIVEIVDPDGMPVPPGEVGEVVVTSLDEKFPLIRYATGDLSAYIENDANSPYTNMRIKGWMGRADSAVKVKGLFVYPHQIQEVCRRHEITGSLKIERDGFNDTITFCCHDVHVSAEDIQATLQSVTKLKGNVQFVANDADQPLINDLRS”, the protein production result is recorded as “failed”. As for “MKVIETNFTDAKLLEPRLFGDDRGFFTESYNKKVLETLGVTHSFVQDNVSYSAEAGTIRGLHFQKNPKAQTKLIQVMQGAIYDVIVDLRKDSPTFKQWRGYILSADNHRQLLVPKGFAHGFCTLVPHTIVMYKVDEYYSADHDSGVLWNDKELAIPWPVTSPILSDKDRILPLLQECEDSF”, the entry is “not failed”.

As to “MKAKLENRLERQLQQLSYARGLILDEIGYLPMTSEEASLFFRLLNRRYEKASIILTSNKGFADWGEMFGDNVLATAILDRLLHHSTTLNIKGESYQLKEKRKVGALTKSATPISEDEMAESGQQK”, the protein production entry is listed as “failed”. On to “MSRMMKMGTGTLRVILWFASILIWFSIFVPIEYLVNYFSGETTNYILHSDDFMMPIKTHVASTNAIASFPSGLYTTLMIIGYILMLVGVFITIQAVSAIVRHIQEQDYFSTENSQQMNRIVKGQIWILGSSLLMACANQLTVSWLYRISQFGLGWDNLLSAFVDLIIFALIAMIYTRAVNMKTESDLTI”, for which the protein production result is “failed”. As for “MKMKSKTKSCCQYTQWVVLALLTLIFASCKDNDDATGDFDPNKPVVISEFSPKEGGLGTRMLLYGENFGSDISKIKVTIGGQDSKVVGAKGKSLYCVVPAKAYDGDIKLSILNDEGEEIANTEANEKFVYQKKMLVTTFLGTMYDGNTKYDLKDGPFDDCGGFGGAVWLSFDPKNHNHLYLVGEQHPTRLIDFEKEYVSTVYSGLSKVRTICWTHEADSMIITNDQNNNDRPNNYILTRESGFKVITELTKGQNCNGAETHPINGELYFNSWNAGQVFRYDFTTQETTPLFTIQDSGWEFHIQFHPSGNYAYIVVVNQHYILRSDYDWKTKRLTTPYIVCGQQGAKDWVDGVGKKARMHAPRQGTFVKNPAYKGSSDEYDFYFCDRENHCIRILTPQGRVTTFAGRGSNGTSGYNDGDLRQEARFNHPEGIVYDEERECFFIGDRENRRIRKIGYEE”, the protein production entry is “failed”. Consider “MTILTRYIAGAYLKILGLCLASFVAIYLVIDFLEKIGRLLRFQPRWIDIIQYFICKLPEIITQVIPLAVLMSTLLTLGMLSRNSEIVAMRGCGVGLGRISAPLIVIAAAVSLLTIFSNEFVLPSSYRQMRYVDQVLIRKQGTNTFFRQNNIWHKDESAIMMARVFDPGRQALRGITLWRFSDGMRPVSRIDAAEGTWDGARWTFKTVTVRGLAGPSVETRTLASLPAELNLKIEDLKVVDKYADNMGFFKLRDYVRKLKAGGYDTTRYEAQMHSKISLPFASLIMAFLGIPFALRGGRSSGVALGITASIGIGFAYFITNSILISFGQTGILPPLISAWAANVLFALSGIWLAMTLDR”, for which the protein production result is “failed”. Consider “SLNDLPGAGRMDVLCRCTSQALFISHGIRRDVEVYLLLLGPPSPPKSILIKGDEVRRMSPDERNVAGHIKKALAVECGKSWKKVHSGVYVSRKGLEELIEELSEKYSIIYLKEDGVDISNAQLPPNPLFVIGDHEGLTEEQEKVVERYAALKLSLSPLSLLAEQCVVIAHHHLDRLQF”, for which the protein production result is “not failed”. Take “SSRKSGIGHEASLKRKAEEKLESYRKKIHMKNQAEEKAAEQFRMRLKNKQDEMKLEGDLRRSQRACQQLDVQKNIQVPREAWYWLRLEEETEEDEEEKEQDEDEYKSEDLSVLEKLQILTSYLREEHLYCIWCGTAYEDKEDLSSNCPGPTSADHD”: the protein production entry was “failed”. Consider “MWSILALGAVERCIHHIIDLDAITRIQTNQLQGKLLRVVTDSPQLSVDVFFDENRVRLEPTVTGQSQTPSIFEQRPFDPQYKMTDATATLHVKNIVELVKLLFNDPDQIGNIPVEGDYHLLQDIQKIMQQSEPDLAAHLSPWIGPALAHELGKIRLAPQQLKRSMQSHLFFVEDALKEDSGLFAPRWQMDDLQHATRQLNQELDRVEARLQQLNLQLQSDN”, for which the protein production result was “failed”. As for “MKYTVYLFDFDYTLADSSRGIVTCFRSVLERHGYTGITDDMIKRTIGKTLEESFSILTGITDADQLESFRQEYSKEADIYMNANTILFPDTLPTLTHLKKQGIRIGIISTKYRFRILSFLRNHMPDDWFDIIIGGEDVTHHKPDPEGLLLAIDRLKACPEEVLYIGDSTVDAGTAAAAGVSFTGVTSGMTTAQEFQAYPYDRIISTLGQLISVPEDKSGCPL”, the entry is “not failed”. Turning to “MANKKIDHREEAIELLKQDAKRILQLIKVQMDNLTLPQCPAYEEVLDTQMYGLSREINFATRLGLIEPEEGKKLISTLEKELSALHELSMSKK”, the protein production result is on record as “not failed”. Turning to “MWIFFRFISGIYLKNFFIIFFSLLGFYCGIDLLLNFKDLPKAANLDLLYVMFLSFSAVPYVLPISLIFALVVSLISMIRANEFVSLYALGLSRNYVILFPFLWALFFCCIYIGLNFTSFAYANDYKRNILKNGTIMNQSGEVFLKFNNNFVYISKINNGQNSAQNIKIFNINDLNLSSFVSAKNAYFEGESWILRDGNITLLPKNYELANDGLKIQDFSELKSLEGFKPKIIEGVASNSDYSISDALESFELFKAQNVNTDALKINLYKFVFTPFFAPFLMLIMYYFFPVIARFFNLAIVTFMAFVVTLMIWGVLFLLTRLSENSVIASEIGIVVPIIILGCLSAYMYYKHR”, the protein production result is “failed”.

As for “MLRASLLCSSTSITFTPIQLFNPNSSHRFPRFELSRPVSALSRTKCHLSLLRARGKSSFLTRSTATDEAVETSSNSGLDLVEVGFLSGVHGLQGEICIKPNTDFPDLRFSKPGRRWLKQQLLGQDKIDEVELVEGRPHPAQKSWILKFRGLDDVDQVRQLVGATLLAEDDDRPELDEGEFYSRDLVGMRVLLKETGQLVGTVANIFDNGGNDLLHVLLDSSMEVCNGNAKTNQLVWIPFVDAIVPDVDLERKEMYITPPKGLLEVNMRADDRSKKERRQLEWKERKKQQKRLIAAKKKLCEMEQKHVFDGLRFGEKSQRNLLADHILNVNSTLLQKALQSIDTSSKRWNVTEEINALRARVSECNLSVSRECLSFDASKENMGDNFSFLQQGQNLFSEGKVSICLVLNDHENEEPEGENGVVSYLHALLDEEQRFIKEEDRACVPLVIVSPEHTIEALQKLFQDNDHFGFESEKIWILKEETLPVVCSSPEEPKKHKILMKSPWEILESPVGSGGVLSILASHGTTDSLSTLGINYLQVHSIETKPQPSQHYINPMLVGFVSARGAEIGIQVTEESELKNLEMTFSMKFLKRLKGKIEFEAVMKMNSHVQNVEKEWVESVPSEPNSFEFRSDIYRVLSECSSSAKICLMNITV”, the protein production entry is “failed”.

In the case of “MARKKAMKVLRKQKKRENMQRFTQKQNIGRACLTAKEFRLLQRMSHSSKALRNVGLYTMKQSYLNHNRMATVKEVDTAMQNDMNYSGIQSNSVQAIRRSLFTEVKSFFKALEQWKKNPEKFTGRPKFPNYSRSTDKRIIEIYQVPKVDENGYWIIPMNVAFRKKFGSIQIRMPKNLRNKKISYIEIVPKQKGRFFEVHYTYEMHVSQMKKPSTTTSNALSCDLGVDRLVSCVTHTGDAFLIDGKKLKSINQYFNKMICNLQQKNMDNGISKRIVTNKMAALWHKRERQINGYIAQTVGLLFKKVKEFDIDTIVIGYNAGWKQNSHMGKKNNQKFVQIPFQKLMAAIENKCIKEGIRFFKQEESYTSKASFLDKDPVPVWSKNDRTQYRFSGKRITRGLYQSKAGTCIHADINGAMNILKKSGVVELDDNLKVKTPILLEVQKRKAIASRIA”, the protein production entry was “failed”. Take “MDEGMQIVGAVSGLSTPFNQNVSLECYNGILSMLLNGAPLADILHALVLKIEDQRLGTHASVLLLSEDGKRVLTGAAPHLPDSYNQVIHGVEIGPEVGSCGTAAYTGQRVIVEDIEHHPYWALYKSFALVHGLRACWSEPIKDTQGKVLGTFAMYYKEIKSPTVADLTLIAEAARLASLAIERSRSLEFQRLAVKIFDRLPLALVITNASHSVLYANDAFKLMVCLQPDDILAFNPEQFFSPSEPHEIASLFNHLSEGKMWQGELVGLRNNGETFYLDLTVTVFRESHSADLGFAWLFSDVSERKKAAQLIKYQANNDSLTGLANRNALFRQIQELINADSLTPGFSFMLMDLDNFKQVNDTYGHDKGDVLLVQMVEQVKICLDPQAVFARLGGDEFAILLPGVVTQRELSQLADKINKQVYRRYELSHDKGVYSSVSIGIARFPEDALDLEQLLNCADQAMYISKANGRNRYHFFTEQMQQNAERIANLHTLLKQALEQNAFELYFQPIVDATTGLIVRAEVLLRWQHEGQFISPDEFIPIAENSGLIVSIGRCVRQAVMQTIVEMQALGWPMSLAINVSTFEFWSHELQDEFCDSFTDIIEGLGVEDFPYELITLEITESLLMKKHAHLIQVLNELRARGIKISLDDFGTGYSSLSYLANFPIDQIKIDKSFIDRLAEGERHLALIEAIVRLSHALNLRVTAEGVETQEQLQVMMDNHIQEIQGYLFYKPIPKAVFFELLAKQAVISPHSLEHHHHHH”: the protein production entry was “failed”. For “MNSPHMDYALAPRASGPASWLETFLVTALVIGVGLWLAPEDPLQVQGEFPWSVLAPLLLGVRYGFVRGLISASLLVAAFFALRHSGLASYAQVAPSYIVGVLVCGMLVGEVRDLWERRLLRLQMANEYRQYRLDDFTRAHQILRVSHDRLEQRLAGSDQSLRSSLLGLRDRLRAAPNGGDPLSLLAEPVLTLLGQYGSLRVAGLYRVEQGASAAPQLSLLASIGTMGPLDSQDLLVRMCLEREELVSVREELLDSGAQASVSSLQACVPLVDTQGQVLAILAVRQMPFFAFQERTLSLLALLAGHIADLLHPDPQVLQLQSADAQHFTRQLKRSLVDVERHGLSGCLYAFELTQPNDELARLFERSQRGLDLHLSLANARGHELLLVLLPLTSAEGAQGYLARLGKLVHEHFGMSVELAGLGVKVLPYDLESARQRDGLRNYLYNECGLNDQQVAV”, the protein production entry is given as “failed”. The same measure for “GFAATALPVLQRVTDRTHEATILSVRDGNHHLTVNKVDGPKTFRVTSDPGHLGALHTTSVGKALVAFEEEVERKRLLEELPLDPLTEHSITDRDKFRAEIDQVRRQGYAVMDEENEIGMRAVAVPVLNSQGHAFASLAVAVPVFRLTMEELIAHVPTLQEAAAELAARLPQ”: “failed”; for “MGLFDEVVGAFLKGDAGKYQAILSWVEEQGGIQVLLEKLQSGGLGAILSTWLSNQQRNQSVSGEQLESALGTNAVSDLGQKLGVDTSTASSLLAEQLPKIIDALSPQGEVSAQANNDLLSAGMELLKGKLFR”: “not failed”. As to “MWLRSYRITFSCLTRLKTYRSSWKKLYSTSQTVDSKEVKTFQALAHSWWDEQGKFAPLHSMNDLRVPFIRDNLLKTSTNHDPGKPLSGMKILDVGCGGGLLTEPLGRLGASVVGIDPVAENIKIAQHHKSFDPVLDKRIQYRVCSLEETLNENAECFDAVVASEVVEHVNNLEMFIQCCYQVLKPGGSLFITTVNKTQLSYVLGIVFSEQIAGIVPKGTHTWEKFVSPEKLESILEPNGLSVETVAGMVYNPFSGYWHWTENTSLNYAAHAVRARAQEHLEPAESA”, the protein production entry is on record as “failed”. In the case of “WPGRDRLRHLEPLRSITQLAALLANELEASVSPDTPLLLAGHSMGAQVAFETCRLLEQRGLAPQGLIISGCHAPHLHSERQLSHRDDADFIAELIDIGGCSPELRENQELMSLFLPLLRADFYATESYHYDSPDVCPPLRTPALLLCGSHDREASWQQVDAWRQWLSHVTGPVVIDGDHFYPIQQARSFFTQIVRHFP”, the protein production result is given as “failed”.
